Molecular target: coil 2 domain of TMCC3 protein (UniProt Q9ULS5)
Assay: ELISA on TMCC3 domain proteins

Kd: 0.01 nM
B1: mouse anti-TMCC3 8D6 monoclonal antibody (antibody, V domains shown)
VH: EIQLQQSGGELVKPGASVKISCTASGYSFTGYNMNWVKQSHGKSPEWIGNINPYYGSTSYNQKFKGKATLTVDKSSSTAYMQLNSLTSEDSAVYYCARWLGLGYAMDYWGQGTSVTVSS
VL: DIVLTQSPASLVVSLGQGATISCRASKSVSPSGYSSMHWYQQKPGQPPKLLIYLASNLESGVPARFSGSGSGTDFTLNIHPVEEEDAATYYCQHSRELPWTFGGGTKLEIKR

Source: patent publication US20260217854A1
